Experimental data published in patent publication US20240344138A1, “TARGETED THERAPIES IN CANCER” (Feng Biosciences, Inc, priority 2021, published 2024).

How the values were obtained:
Format in all cases: in vivo, human
[1] = system: advanced metastatic hepatocellular carcinoma; assay: Single arm phase 2 first-line trial of bavituximab and immune checkpoint inhibitor, outcome by TME phenotype; parameters: 6 month progression-free survival (6-month PFS): concentration or dose not given beside the values
Procedure: (§1) A single arm phase 2 clinical trial is run to determine whether advanced metastatic hepatocellular carcinoma tumor microenvironment phenotypes correlate to clinical responses when patients are treated with Bavituximab and an immune checkpoint inhibitor in the first-line setting. The analysis includes samples from 28 patients. RNA gene signatures are analyzed from tumor samples acquired before any treatments and TME phenotypes are determined. Patients are followed for clinical response, progression-free survival, and overall survival.
(§2) Hepatocellular carcinoma patients receive a regimen of Bavituximab plus an immune checkpoint inhibitor (anti-PD-(L)1—i.e., an inhibitor to PD-1 or PD-L1) therapy. […] Twenty-eight (28) patients are enrolled, with equal representation across the 4 stromal phenotypes (7 in each phenotype). The correlation between each TME phenotype is tested against clinical outcome data. In patients that are biomarker positive, represented by immune active (IA) and immune suppressed (IS) phenotypes, the use of the regimen of Bavituximab/immune checkpoint inhibitor confers benefit in comparison to patients classified as biomarker negative, comprised of angiogenic (A) and immune desert (ID) TME phenotype classes, as shown in the TABLE 31.

[2] = system: metastatic gliomas and glioblastoma; assay: Clinical trial of radiation, bavituximab and a checkpoint inhibitor, best objective response versus TME biomarker status
Procedure: A clinical trial is run to treat metastatic gliomas and glioblastoma with a combination of radiation, the anti-phosphatidylserine (anti-PS) targeting antibody bavituximab, and a checkpoint inhibitor (CPI), such as a PD-(L)1, e.g. pembrolizumab or nivolumab. Tumor tissue samples from surgical resections of glioblastoma are RNA sequenced and TME phenotypes are determined. Patients are followed for ORR.

[3] = system: recurrent/metastatic squamous carcinoma of head and neck (HNSCC); assay: Single arm phase 2 trial of bavituximab and immune checkpoint inhibitor after progression on an immune checkpoint inhibitor, outcome by TME phenotype
Procedure: as §1, with “recurrent/metastatic squamous” for “advanced metastatic hepatocellular”, “carcinoma of head and neck (HNSCC)” for “carcinoma”, “following progression on an immune checkpoint inhibitor (e.g., nivolumab, pembrolizumab, durvalumab, atezolizumab, etc.).” for “in the first-line setting.”
as §2, with “HNSCC” for “Hepatocellular carcinoma”, “In” for “In patients that are”, “positive patients,” for “positive,”, “32.” for “31.”

[4] = system: advanced colorectal cancers metastatic to liver (mCRC); assay: Phase 2 trial of navicixizumab, innate immune activating agent and PD-(L)1 agent (3L+), outcome by TME phenotype; parameters: mPFS: unit not given beside the values; details: 3L+ mCRC
Excerpt: A phase 2 clinical trial is run to determine clinical benefit in patients with advanced colorectal cancers metastatic to liver (mCRC) treated with a triplet combination of navicixizumab, an innate immune activating agent, and a PD-(L)1 agent. In this setting, regorafenib or trifluoridine/tipiracil therapy typically yield a median PFS (mPFS) of ˜2 months and median OS (mOS) of ˜7 months. […] The analysis includes enrollment of 60 patients with prospectively defined, retrospective analysis of liver metastatic lesions by the classifying the TME phenotypes as A, IA, IS or ID.
MSS+ advanced colorectal cancer patients (3L+) with liver metastases are treated with the triplet combination of navicixizumab, an anti-PD(L)1 therapy and an innate immune stimulating agent, such as the Dectin agonist Imprime PGG, the STING agonist BMS-986301 and the NLR agonist BMS-986299. ORR, mPFS, 3-month PFS rate, mOS and OS rate at 9 months are assessed across all TME phenotypes. […] patients received a greater clinical benefit than the standard of care for 3L+ mCRC with regorafenib or trifluoridine/tipiracil.

B1: Bavituximab/immune checkpoint inhibitor: bavituximab plus an immune checkpoint inhibitor (anti-PD-(L)1) (antibody, chains of the INN, looked up, V domains shown)
VH: EVQLQQSGPELEKPGASVKLSCKASGYSFTGYNMNWVKQSHGKSLEWIGHIDPYYGDTSYNQKFRGKATLTVDKSSSTAYMQLKSLTSEDSAVYYCVKGGYYGHWYFDVWGAGTTVTVSS
VL: DIQMTQSPSSLSASLGERVSLTCRASQDIGSSLNWLQQGPDGTIKRLIYATSSLDSGVPKRFSGSRSGSDYSLTISSLESEDFVDYYCLQYVSSPPTFGAGTKLELK
modifications: plus immune checkpoint inhibitor
In the case of B1, the “6 month progression-free survival (6-month PFS)” value ([1]; all patients, first-line) is reported as ~57.2%, the “Overall response rate (ORR)” value ([1]; all patients, first-line) is reported as ~32% and the “overall survival (OS)” value ([1]; all patients, first-line) is reported as ~20 months.

B2: bavituximab, checkpoint inhibitor, and radiation (antibody, chains of the INN, looked up, V domains shown)
VH: B1 VH
VL: B1 VL
modifications: with checkpoint inhibitor and radiation
With B2 the “Best Objective Response CR, number of patients” value (“Best Objective Response CR” for short) ([2]; TME A) was 0, the “Best Objective Response PD, number of patients” value (from here on “Best Objective Response PD”) ([2]; TME A) was 4 and the “Best Objective Response PR, number of patients” value (from here on “Best Objective Response PR”) ([2]; TME A) was 1. For the same molecule, the “Best Objective Response SD, number of patients” value (from here on “Best Objective Response SD”) ([2]; TME A) was 1, the “Best Objective Response CR” value ([2]; TME IA) was 0 and the “Best Objective Response PD” value ([2]; TME IA) was 4. For the same molecule, the “Best Objective Response PR” value ([2]; TME IA) was 3, the “Best Objective Response SD” value ([2]; TME IA) was 2 and the “Best Objective Response CR” value ([2]; TME ID) was 0. For the same molecule, the “Best Objective Response PD” value ([2]; TME ID) was 6, the “Best Objective Response PR” value ([2]; TME ID) was 1 and the “Best Objective Response SD” value ([2]; TME ID) was 1. The “Best Objective Response CR” value ([2]; TME IS) was 0, the “Best Objective Response PD” value ([2]; TME IS) was 4 and the “Best Objective Response PR” value ([2]; TME IS) was 4. The “Best Objective Response SD” value ([2]; TME IS) was 4.

B3: Bavituximab plus immune checkpoint inhibitor (antibody, chains of the INN, looked up, V domains shown)
VH: B1 VH
VL: B1 VL
modifications: plus immune checkpoint inhibitor
In the case of B3, the “6-month progression free survival (PFS) rate” value ([1]; Biomarker Negative (n = 14)) is reported as 35.7%, the “Overall response rate (ORR)” value ([1]; Biomarker Negative (n = 14)) is reported as 14% and the “overall survival (OS)” value ([1]; Biomarker Negative (n = 14)) is reported as 16.2 months. The “6-month progression free survival (PFS) rate” value ([1]; Biomarker Positive (n = 14)) was 78.6%, the “Overall response rate (ORR)” value ([1]; Biomarker Positive (n = 14)) was 50% and the “overall survival (OS)” value ([1]; Biomarker Positive (n = 14)) was 23.8 months. For the same molecule, the “6-month progression free survival (PFS) rate” value ([1]; TME phenotype A (n = 7)) was 42.8%, the “Overall response rate (ORR)” value ([1]; TME phenotype A (n = 7)) was 14% and the “overall survival (OS)” value ([1]; TME phenotype A (n = 7)) was 16.7 months. For the same molecule, the “6-month progression free survival (PFS) rate” value ([1]; TME phenotype IA (n = 7)) was 71.4%, the “Overall response rate (ORR)” value ([1]; TME phenotype IA (n = 7)) was 43% and the “overall survival (OS)” value ([1]; TME phenotype IA (n = 7)) was 22.4 months. For the same molecule, the “6-month progression free survival (PFS) rate” value ([1]; TME phenotype ID (n = 7)) was 28.6%, the “Overall response rate (ORR)” value ([1]; TME phenotype ID (n = 7)) was 14% and the “overall survival (OS)” value ([1]; TME phenotype ID (n = 7)) was 15.7 months. For the same molecule, the “6-month progression free survival (PFS) rate” value ([1]; TME phenotype IS (n = 7)) was 85.7%, the “Overall response rate (ORR)” value ([1]; TME phenotype IS (n = 7)) was 57% and the “overall survival (OS)” value ([1]; TME phenotype IS (n = 7)) was 25.2 months. The “Overall response rate (ORR)” value ([3]; Biomarker Negative (n = 14)) was 14.3%, the “overall survival (OS)” value ([3]; Biomarker Negative (n = 14)) was 7.8 months and the “progression free survival (PFS)” value ([3]; Biomarker Negative (n = 14)) was 2.5 months. For the same molecule, the “Overall response rate (ORR)” value ([3]; Biomarker Positive (n = 14)) was 36.4%, the “overall survival (OS)” value ([3]; Biomarker Positive (n = 14)) was 11.2 months and the “progression free survival (PFS)” value ([3]; Biomarker Positive (n = 14)) was 5.5 months. For the same molecule, the “Overall response rate (ORR)” value ([3]; TME phenotype A (n = 7)) was 14.3%, the “overall survival (OS)” value ([3]; TME phenotype A (n = 7)) was 8.6 months and the “progression free survival (PFS)” value ([3]; TME phenotype A (n = 7)) was 2.6 months. The “Overall response rate (ORR)” value ([3]; TME phenotype IA (n = 7)) was 28.6%, the “overall survival (OS)” value ([3]; TME phenotype IA (n = 7)) was 11.0 months and the “progression free survival (PFS)” value ([3]; TME phenotype IA (n = 7)) was 5.3 months. For the same molecule, the “Overall response rate (ORR)” value ([3]; TME phenotype ID (n = 7)) was 14.3%, the “overall survival (OS)” value ([3]; TME phenotype ID (n = 7)) was 7.0 months and the “progression free survival (PFS)” value ([3]; TME phenotype ID (n = 7)) was 2.4 months. The “Overall response rate (ORR)” value ([3]; TME phenotype IS (n = 7)) was 42.9%, the “overall survival (OS)” value ([3]; TME phenotype IS (n = 7)) was 11.4 months and the “progression free survival (PFS)” value ([3]; TME phenotype IS (n = 7)) was 5.7 months.

B4: navicixizumab, an anti-PD(L)1 therapy and an innate immune stimulating agent (antibody, chains of the INN, looked up, V domains shown)
VH: QVQLVQSGAEVKKPGASVKISCKASGYSFTAYYIHWVKQAPGQGLEWIGYISNYNRATNYNQKFKGRVTFTTDTSTSTAYMELRSLRSDDTAVYYCARDYDYDVGMDYWGQGTLVTVSS
VL: DIVMTQSPDSLAVSLGERATISCRASESVDNYGISFMKWFQQKPGQPPKLLIYAASNQGSGVPDRFSGSGSGTDFTLTISSLQAEDVAVYYCQQSKEVPWTFGGGTKVEIK
VH2: QVQLVQSGAEVKKPGASVKVSCKASGYTFTNYWMHWVRQAPGQGLEWMGDINPSNGRTSYKEKFKRRVTLSVDKSSSTAYMELSSLRSEDTAVYFCTIHYDDKYYPLMDYWGQGTLVTVSS
VL2: B4 VL
modifications: with anti-PD(L)1 and innate immune stimulant
In the case of B4, the ORR ([4]; TME phenotype A (n = 12)) is reported as 25%, the “PFS rate (3 month)” value ([4]; TME phenotype A (n = 12)) is reported as 30% and the mOS ([4]; TME phenotype A (n = 12)) is reported as 12 mos. For the same molecule, the mPFS ([4]; TME phenotype A (n = 12)) was 6, the ORR ([4]; TME phenotype IA (n = 12)) was 35% and the “OS rate (9 month)” value ([4]; TME phenotype IA (n = 12)) was 50%. For the same molecule, the “PFS rate (3 month)” value ([4]; TME phenotype IA (n = 12)) was 30%, the mOS ([4]; TME phenotype IA (n = 12)) was 12 mos and the mPFS ([4]; TME phenotype IA (n = 12)) was 6. For the same molecule, the ORR ([4]; TME phenotype ID (n = 24)) was 20%, the “OS rate (9 month)” value ([4]; TME phenotype ID (n = 24)) was 40% and the “PFS rate (3 month)” value ([4]; TME phenotype ID (n = 24)) was 30%. The mOS ([4]; TME phenotype ID (n = 24)) was 10 mos, the mPFS ([4]; TME phenotype ID (n = 24)) was 4 and the ORR ([4]; TME phenotype IS (n = 12)) was 30%. For the same molecule, the “OS rate (9 month)” value ([4]; TME phenotype IS (n = 12)) was 45%, the “PFS rate (3 month)” value ([4]; TME phenotype IS (n = 12)) was 30% and the mOS ([4]; TME phenotype IS (n = 12)) was 11 mos. For the same molecule, the mPFS ([4]; TME phenotype IS (n = 12)) was 5.
